Results as given in a protein production outcome set (Wang et al. 2014).

Assay: label from the status in PepcDB records

MTPEALSFWTQADKPFLFLAACIELTNALAYGPGYVCGLPCSWDGSCSGAQHLCAATRSEDAWKVNLIGNDEVHDLYTIVGNAAKQSMARDTDPMVSTILAYEGDWRKVFKRNTMTTFYGSKGFGMAQQHMDDLMEPLSREVMQKKRAKHPFGQTRKEHHAASRLLAAHAAAAIKGEIPLAIKAMEFIQKLSAMMAHEGKPLEWTTPIGLPWSNRYHDPVTERVNLWMHDHGVRRPFRPVVADGYKKTINKNHSVNGSAPNFVHACDAAHLLRTVNAARAEGITQFALVHDSFGSLPSHAARFRQIIREEFVRMYEEHDVLTEVLEQAKCDLDEHNDKLSALVDMRADLTGKLNIKEVLNAEYAFAYPKLSEPDTKGEYADGKYKTEGTATEDYTERFQEEIQKVADDNFPGKKNVHLPWKETKEGDIAFIFKNPKKKPILTDSRGKPLKEGTVIRGGSKIRIAGVIAAWEKGAKRGVSLWPDAVRVIKLSEGFDANAAFGAAEDGFNADDYEPTNFGNDGEDADNDADDAEAGDDAFKLLEHHHHHH
protein production: not failed

MEKKILKPLRKTVSELLCVICTSLLLISLFSFTALAGDINTSPNINSDDKISASVVSKLTEISGDEQIPVIITLPNQKIAFNTAAGKYQIESEQKNLIKFLENEKSKNKVNKIKPIKIINAVAAKVNPEVLASLAGRSDVSKIELDEVVSIVGQSEPSFKKIAASTTLSTAASTNAWGVDKIDAPAVWQQGINGKGITVAVVDTGIDATHPDLDDLDDNPSTNDPKVVGWVDYINSQSSAYDDNGHGTHVAGIVSGTGDNGIQTGVAPGTKLLVAKVFDSEGDGYLSTCILGFEWAVNNNARIISFSGGSPEHDSLFTTMINKVVAAGVVPVIAAGNDGDGSGTITCPGDELNSLTVGATDSSDAIADFSSRGPVTLDDQTYIKPDISAPGVSIPSTYPGDGYAYGDGTSMAAPHVSGTVALILEKKPTMTPAEVKKELESTAVDLGSAGKDNDYGSGRIDAYDAVFGKGPVANFYAKPTSGKVPLTVAFTDTSTGTPTKWRWNFGDGSKSFLQNPKHKYSKAGTYTVNLTVKNAKGKNTVTKTDYIVVISKPTAAFSASPTSGKAPLTVAFTDKSSGNPTAWKWSFGDGTISREKNPTHQYLQEGKYKITLTVSNAAGKSTTKKINYIKVTTNTRPGIYSESK
protein production: failed

MKIAIAGAGAMGSRLGIMLHQGGNDVTLIDQWPAHIEAIRKNGLIADFNGEEVVANLPIFSPEEIDHQNEQVDLIIALTKAQQLDAMFKAIQPMITEKTYVLCLLNGLGHEDVLEKYVPKENILVGITMWTAGLEGPGRVKLLGDGEIELENIDPSGKKFALEVVDVFQKAGLNPSYSSNVRYSIWRKACVNGTLNGLCTILDCNIAEFGALPVSESLVKTLISEFAAVAEKEAIYLDQAEVYTHIVQTYDPNGIGLHYPSMYQDLIKNHRLTEIDYINGAVWRKGQKYNVATPFCAMLTQLVHGKEELLGAK
protein production: not failed

MEISTKTLHFIEEHREDDTRTLALQSKKYPDVDMAAAVTQIAGRQVAARKIPSWYPVSALWYPPHLSMEQCSSEATALYKASLLEGDTFADLTGGFGIDCSFISRNFKQADYVERQSGLCELALHNFPLLGLGHIRIHNRDGISYLQEMLPVDCLFLDPARRDGHGGKTVAISDCEPDVTVLEPLLVDKAKKVMVKLSPMLDLSLALNELKTVRAVHIVAVNNECKELLLILQKESVSSEVSIHCEHIAGNGESRHYTFTLKQEKTSPCLLADEVGTYLYEPNAAILKAGAFRSLTQTYPVAKLHLNSHLYTSVSLVPDFPGRRFRVEAVSGFGKKELKAFLMDMDKANITIRNFPLSVAELRKRLKLKEGGDDYIFATTLSGGQKVLIRGKKC
protein production: not failed

MFKPQGLYDYICQQWQEEILPSLCDYIKIPNKSPHFDAKWEEHGYMEQAVNHIANWCKSHAPKGMTLEIVRLKNRTPLLFMEIPGQIDDTVLLYGHLDKQPEMSGWSDDLHPWKPVLKNGLLYGRGGADDGYSAYASLTAIRALEQQGLPYPRCILIIEACEESGSYDLPFYIELLKERIGKPSLVICLDSGAGNYEQLWMTTSLRGNLVGKLTVELINEGVHSGSASGIVADSFRVARQLISRIEDENTGEIKLPQLYCDIPDERIKQAKQCAEILGEQVYSEFPWIDSAKPVIQDKQQLILNRTWRPALTVTGADGFPAIADAGNVMRPVTSLKLSMRLPPLVDPEAASVAMEKALTQNPPYNAKVDFKIQNGGSKGWNAPLLSDWLAKAASEASMTYYDKPAAYMGEGGTIPFMSMLGEQFPKAQFMITGVLGPHSNAHGPNEFLHLDMVKKLTSCVSYVLYSFSQKK
protein production: not failed

MRQSCLMTEQLQDIKTLIEQGDTERAIHALTNFIRNDAHVNDEPYYLLGNAYRKMGDWQQALNNYLEAIERNPESPAVSARNMIMNILNFYNKDMYNQ
protein production: failed

MMGRVAMLTGSRGLRYATVIALVAALVGGVYVLSSTGNKRTIVGYFTSAVGLYPGDQVRVLGVPVGEIDMIEPRSSDVKITMSVSKDVKVPVDVQAVIMSPNLVAARFIQLTPVYTGGAVLPDNGRIDLDRTAVPVEWDEVKEGLTRLAADLSPAAGELQGPLGAAINQAADTLDGNGDSLHNALRELAQVAGRLGDSRGDIFGTVKNLQVLVDALSESDEQIVQFAGHVASVSQVLADSSANLDQTLGTLNQALSDIRGFLRENNSTLIETVNQLNDFAQTLSDQSENIEQVLHVAGPGITNFYNIYDPAQGTLNGLLSIPNFANPVQFICGGSFDTAAGPSAPDYYRRAEICRERLGPVLRRLTVNYPPIMFHPLNTITAYKGQIIYDTPATEAKSETPVPELTWVPAGGGAPVGNPADLQSLLVPPAPGPAPAPPAPGAGPGEHGGGG
protein production: failed

MVPMASNNLAYIKLRLLSLLVGLGIAALASLIIYAVAYYLFGIYSIGIIFGVFVLVLMMDLLQWFIGPYIVDMVYRAKKADPNRYGNIIAIVEEVAKLNGIRPPTLYISEVSFPNAFAYESPIAGRRIAITRPLLGILNEDELRAVIGHEIGHLKHHDSAVIMAIGLIPTLIFYFAYTTLFAGDRRNGGSAIILALVLMVVSFLFNIMVLSVNRLRESYADANAALTIPNGARNLQTALAKIVRYGSSAKNTAASMLLFANYDMDREDVETLIDKWRTMRVGILSDLFSDHPHPAKRIRLLDKLQDSS
protein production: failed

MSTDQTPTAAGSGFSYTLTRTLDAPAARVWQAWTTPDQYAQWAYAVPGSVEMDVRPGGTWKATMRTPDGTEFPLTGSYIEVAEHRALTIGMNVPGRPDPATMTVELAEEGPRNTVITLRQTCDTAEERDGAEQGSGMLLDGLTGFLAGGKQG
protein production: failed

MAEIDYKKVTGMIHSTESFGSVDGPGIRFIIFMQGCKMRCQYCHNPDTWEMETNNSKERTVEDVLKEALRYKHFWGKDGGITVSGGEAMLQIDFITALFIEAKKLGIHTTLDTCGFAYRATPEYHAILEKLLDVTDLVLLDLKEIDSEQHKIVTRQSNKNILQFARYLSDRGTPVWIRHVLVPGLTDIDDHLKRLGEFVQTLDNVDKFEVLPYHTMGEFKWRELGIPYPLAGVKPPTPERVKNAKDIMKTESYTEYLKRIQN
protein production: not failed

SDPDADRIGVAVRNNEGRMVLINGNEICSLLIYYSIMRRKELGDLHPDDYIVKTIVTTELIRDIAKKEHVSMFDCYTGFKWIAAVIRENEGRRRYIGGGEESYGFLWEDFIRDKSSVSACALFCEMAAWALDRGMSVYRLIRSIYLEYGLYYE
protein production: failed

MASFVESGWQYLVTHFSDFQLACIGSFLLHESVFFLSGLPFIFLERQGFLSKYKIQTKNNTPAAQGKCITRLLLYHFSVNLPLMLASYPVFRAMGMRSSFPLPSWKEVSAQILFYFIIEDFVFYWGHRILHSKWLYKNVHSVHHEYATPFGLTSEYAHPAEILFLGFATIVGPALTGPHLITLWLWMVLRVLETVEAHCGYHFPWSLSNFLPLYGGADFHDYHHRLLYTKSGNYSSTFVYMDWIFGTDKGYRRLKTLKENGDMKQT
protein production: failed

MLYLNFPSVSIRLFASDESNTLKRWPVFPRSLRQLVMLAFLLILLPLLVLAWQAWQSLNALSDQAALVNRTTLIDARRSEAMTNAALEMERSYRQYCVLDDPTLAKVYQSQRKRYSEMLDAHAGVLPDDKLYQALRQDLNNLAQLQCNNSGPDAAAAARLEAFASANTEMVQATRTVVFSRGQQLQREIAERGQYFGWQSLVLFLVSLVMVLLFTRMIIGPVKNIERMINRLGEGRSLGNSVSFSGPSELRSVGQRILWLSERLSWLESQRHQFLRHLSHELKTPLASMREGTELLADQVVGPLTPEQKEVVSILDSSSRNLQKLIEQLLDYNRKQADSAVELDNVELAPLVETVVSAHSLPARAKMMHTDVDLKATACLAEPMLLMSVLDNLYSNAVHYGAESGNICLRSSLHGARVYIDVINTGTPIPQEERAMIFEPFFQGSHQRKGAVKGSGLGLSIARDCIRRMQGELYLVDESGQDVCFRIELPSSKNTK
protein production: failed

MPNPRRIVFGDVHGHFDALTALFEAIAPNERDGVYFVGDLIDRGPESAKVVDFVMENKYHCLLGNHEQMMLDAVGGFNFSPQLLHAWIYSGGKSTLESYEHQIPQSHVDWMRNLPLYLDLGDVWLVHAGVDPRLPIEEQGEAQFCWIRDEFHRYPYPYFANKLIITGHTITFTFANVEPGKLVSGPGWLDIDTGAYHPKSGWLTALELNNQEVYQAHIFTNEVRRLPLEDAVVPLPPQNLHRLEHHHHHH
protein production: failed

DELFNWFYIRSEINSKMSFYIATESDALVSILGFYACDFLIDSRIVPGLWTAMWFTLPQYRNGIGALLMKELVDTNSCSMWPRRIKHEFTNS
protein production: failed

MANVKLLLPYILKWEGGFVHDPADAGGATNKGVTIATWKRVGYDKDGDGDIDVEDLKLLTDDDVLNRVLKPFYWDRWKADLIESQKVANILVDWVWGSGKYGIVIPQRILGVQADGIVGNKTLQAVNSADPDELFESIFDARREFLEDITARSIKKYEDSIGRKATERELLRHTNKRFLRGWLNRLEDIRKL
protein production: not failed

MTNTLKTSYQKTPYKLGGNGPRNVGVLTEALQNIDDNLESDIYGNGAVIEDFETKIAKILGKQSAVFFPSGTMAQQIALRIWADRKENRRVAYHPLSHLEIHEQDGLKELQQITPLLLGTANQLLTIDDIKSLREPVSSVLIELPQREIGGQLPAFEELEKISEYCHEQGISLHLDGARLWEITPFYQKSAEEICALFDSVYVSFYKGIGGIAGAILAGNDDFVQEAKIWKRRYGGDLISLYPYILSADYYFEKRIGKMAEYFEAAKGLAERFNSCSGVKTVPEVPVSNMFHVYFENSADEIGAILTKIQDETGVGISGYLQEKSADVCAFEVSVGDAFAEIPAKNLELVFRCLEKEL
protein production: not failed

MKKLLFAIDDTEACERAAQYILDMFGKDADCTLTLIHVKPEFMLYGEAVLAAYDEIEMKEEEKAKLLTQKFSTFFTEKGINPFVVIKEGEPVEMVLEEAKDYNLLIIGSSENSFLNKIFASHQDDFIQKAPIPVLIVK
protein production: not failed

MSERVKVAILGSGNIGTDLMYKLLKNPGHMELVAVVGIDPKSEGLARARALGLEASHEGIAYILERPEIKIVFDATSAKAHVRHAKLLREAGKIAIDLTPAARGPYVVPPVNLKEHLDKDNVNLITCGGQATIPLVYAVHRVAPVLYAEMVSTVASRSAGPGTRQNIDEFTFTTARGLEAIGGAKKGKAIIILNPAEPPILMTNTVRCIPEDEGFDREAVVASVRAMEREVQAYVPGYRLKADPVFERLPTPWGERTVVSMLLEVEGAGDYLPKYAGNLDIMTASARRVGEVFAQHLLGKPVEEVVA
protein production: not failed
